According to the domain aggregation screens of Martell et al. (2025):

test: soluble fraction after stress (log2 fold change); higher = more stays soluble; pooled small domains, quantitative proteomics; settings: stress: 50 degC
Summary of the method: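 After stress at 50°C, the amount of each protein still soluble was measured. This was done on pooled custom libraries of small protein domains, using high-throughput quantitative proteomics. The figure given is a base-two log fold change and stands for aggregation propensity, with higher values meaning more protein stays in solution.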

Row | Sequence | soluble fraction (log2)
1 | HMGTPEQSAQFEQVLEELKNVPGPVMKAMQRAQDIYGYLPIEIQSRIGQAFGVSLEEVYGIATFYSQFNL | -1.68
2 | HMITGREMDVLEALWSSEKPLVASDIPKMKPSLSISSVQLALRNLVKKKLVEVADIVYSGTVLSRSYRP | 0.0545
3 | HMKFPPELVEFIEGLSLLKPPLNYATVHRRAEKLAIKKGWASPSYSTVRNIIRKLSPALTTLAHEG | -2.15
4 | HMEATILTATPEAAGQRLDAFLAETLPELTRSAAQRLIAEGQVAVDGKIPTKSLKLAGGETVSVRLPEPE | 0.275
5 | HMKRIHLSDEEKTDLESLHYSSNDGKQRDRIKAVLLRSEGWTVPMISQALRIHETTVTRYLNDYREGKLKN | 0.00871
6 | HMENIEVDFGVGDTVSVIGGAWKDTVGVVQAMNPNKQSLTINVELFGRETPVEISFTDVQKM | -0.0126
7 | HMKVSAEEQNILDALQAAGGYLPFHDKSNPEEIYEAFGISKKTFKMIIGSLYKQQKINLTQTGIQLII | -0.0574
8 | HMSLPDREVVLETSSDSYYHFKTDHFQRQITYSAVRNAPVRLVTISAERAFEVISLNRRGERPEHLE | -3.53
9 | HMNERIKSLRKALGLTQQEFADKLGISRGNIGAYEVGKNAPSDAVISLIVRIFNTNENWLRTGEGEM | -0.145
10 | HMSINQIADKGYITRLIDNNANIKDVLYYDASSRILAIEDPKYMFYLKNTDWNQFAKEMGFKLE | -0.657
11 | HMGQISDEETLKTVASRIIDANPDEARKYRSGKTGLLGFFVGQVMKATQGEANPKLASRIVKELLE | -0.0262
12 | HMIDSDENERIKELIKALISETLKSRGVSPEVISDIKERVDRLHNEELPRFAAELKELISRN | 0.119
13 | HMVLSPAQVRRALMVSGLFTEARVARQLGVPMDLKQILRIILRNTPPQSAMARELESAIDEIESRNAMRD | -1.62
14 | HMNKRYKVQVTTDNLKIRKGAGTSYPVVGHITDKGTYTIVETSGKWGKLLSGAGWIYLSYTKK | -1.76
15 | HMTGSLLVEVQGRPDADRLLGQALVDAGLTARPAGGALIEVEVRDETTPDVVRDLTVDLGLGLVRMQERH | -0.702
16 | HMTPTPQQNNILVGQTGTTLTRLAPMGKVRVGEVTAEAKTIDGYINPRQSVEVIGFENTVVIVRAV | 0.144
17 | HMNTDEYEQKRGEILDAAQRLIYTKGYERMSIQDILDELKISKGAFYHYFDSKQSLLEALTARMMTE | -0.101
18 | HMNTKQRTAVMRILKQSSDPVSADDVFAALKDEYPSLALSTVYRNLERFADESMVKKDVWSDGIVRYSLAD | -0.189
19 | HMLQEFTLELATAVVQEFRDQPGALINALHKLQETFGYVDEAAMPVLARLFNLSRAEVHGVASFYHDFRRS | -1.49
20 | HMIANDDEIRKVVLEVIEEQPKAVEDVKNGRDRILDFLVGQVMKKTRGKANPSLASNLMKEEIEK | 0.177
21 | HMVKSSVTEVISMINALPVTVKPEDKADIISARMAYDTLTEDEKALVTNYEILTAAETRFNELIATT | 0.205
22 | HMGEAYVVPNVKNKTLGEAQLALHNQKLEGLVVDSSYVKGLPDGMILDQNPAGGARVKEGRTIYLTITTS | 0.00953
23 | HMNYKLESYLKKVDDQLNFIPVSDKADILSELKNTFYERLLNGQTEEEILDEMESPRELALSYMSES | 0.0578

Row | Sequence | soluble fraction (log2)
24 | HMDHTYKHIELTGSSEKGIEEAVQNALAKASESVQNMRWLEVTDTRGHIEDGRVAHWQVTVKVGFTL | -0.0248
25 | HMAATVKVPDLTKMTPDEAQRALGQVGLKGKQGDDVDDDSVPVGYIAKQDEAPNSDAKAGDTITYHL | 0.16
26 | HMVINVNEIIRRIKELKTFKTDRQVADFLGVSKATVSNWMARNSIDFPLLINKLDGVDLTWLLTGRGTPE | -1.16
27 | HMSPTSSRAAQARIRKMIESESPLKPISDSQLAARLGEEGISIARRTVAKYREQMNILPASQRRGV | -0.146
28 | HMQQNDMTELRALAEKIISENDSVINDYKSGQGSALQFLIGQAMKETKGSANPQVISEIFTDLL | -0.225
29 | HMLKKRKPMSGVGVIVKGMLTGTVTGTDGSYALKARPNDELSFSFLGYKTQEVFVGSKSTIDITLVDEA | -0.13
30 | HMTGSLRIKHKTYYMLFSWKDESGQWRQKSESTGIPERGGKRKAQEMLNTRLEELQLQSTASL | -3.75
31 | HMDFYPARVKWFNKSKGFGFANIFKSNDDIFLHIETLKRSGLSDLETGEAIVLTVTEGPRGKMADTILTWD | -0.433
32 | HMDKLNKELVSRMMDDAAWKELSKDFPWTEQLLEKYMNYVDWKEISRNYNVVWTKSLLEKFKHRLDWHE | -1.44
33 | HMRHKSNRRLTAAHQIEQQIQKLLMENTMEAKELKESLNFAAKDIDTVLSWLVDKDKVRINAINQYYWT | -0.767
34 | HMPLTRSDVKRIQLWLMAHGYDIGSPDGVFGDKSNRAANAFLSQQGRSLETVTLGKLYDILEAN | -2.01
35 | HMAKRINVKLIMELSAGGLTQNEIASSRHFSKTSVNLVLKTARELNVSAADLREMSPEEAYRLFFPEK | -1.43
36 | HMTAGYFTRGSHQDEVLRIQGTPSGVNKYSDHEVWNYGLSSVDISLRDRRVTEWNNISGNLKV | -0.152
37 | HMQAKDVEVPDYVGKSFVSIKENNPNDFKFEVKSEYDESKEMGVILDQEPKGGSMKVKSGSTITVTV | -0.0106
38 | HMYVYEPGEFAVRGSILDVYSYASEFPYRIDFFGDDVESIRTFEVQTQLSKEAKDRVSIVPDTEQ | -0.181
39 | HMVKLSDGIVEHIKSLIMAGRLKPGDKLPPEREFAATLGVSRTALREAVRTLSLMGLLDARQGEGTFVSG | -0.116
40 | HMGVEALTPRQREVLALMAQGRSNGWIAAELGLSEKAIVQHTSNIYDMLGLAVDADDHRRVLAVIHYLT | -1.25
41 | HMIANNFDEFVEKVSEAERKALNMPAGQEMTQKLLEMKLAANPNLTPEEWQRTKSEFMTFLFAVFVRE | -0.842
42 | HMDTINEYERNILSLITSKPGISAVQIAADTDKSIITAKRGIKTLVDGKLIEYRGSKKTGGYFLLTQS | -0.371
43 | HMKIDNPEYQKIMDMIPYFFQTRNYDEAIEALSYVIEQEPSFSEAYNKRATFYFMMGDFENSMKDIESTLA | -0.155
44 | HMKVNIGDQVYNQMKDQIMSGVWVPGEKIPSENQLMEVFGVSRGTVRQAIQKLSAVGLLETRRGEGSYVGQ | -0.115
45 | HMTYMWTTDGVNLRSEPNTDSAVVTVLGVGTQVRMIGEEDGWVKVSFNDQEGYIRADFLTTE | -0.0926
46 | HMFKYLLDTNIVIYVIKKRPIEVMGVFNQNANRMAISAITFSELQHGAEKSVRVQENLNAIEEFTTLIDI | 0.181

Row | Sequence | soluble fraction (log2)
47 | HMTSLTDDELSVVMLVREREISFDEITSETGFDAARLNSVLTMLKIKGIIDETTGKHYRISGGA | 0.146
48 | HMLFSDSDLKSLLDKDISYVIEMYKAASKEQKRIISDMVAQKVMEKKYIDANILIQLGELTGINYMDL | -0.472
49 | HMSTMVEIPNVVGMTIKEAKEALGNLGLSISKISGSNEDSAIVTEVSPAPGSSVKRDESITLVGQPK | 0.0366
50 | HMKQETLNEIGTKIRKLRESKNLSIQEFADKLEMEYNNVIRIEKGRTNFTIGTLVKIANSLEVNLKDI | -0.78
51 | HMNDPIGDMLTRIRNAQMRGKSTVSTPASKLRAWVLEVLASEGYIRGFERATTDNGQGELVISLD | -0.665
52 | HMGVLGVDALAAAAEVSVDTVRYYQHLGLLEPPRREGRRAVYGPSHLARMGEIRRLAAAGFTLDQIRQLAE | -2.1
53 | HMGLSAALKARLREVINEMAKSGAQPKLREWALAEGIGNFAKPETPEAAEAVIAKAQELLAEA | 0.547
54 | HMKTDFEIDITVKASSLRVVASPGGDELVGTVTRGDRVTQLATPKDGWILIKMTDGRLGYVPESLLLFP | -0.0577
55 | HMKVDRLISIVLVLLDKNRISAQELADMFEVSLRTIYRDIDAIELAGIPIRSTSGVGGGFEIMPNY | -0.577
56 | HMPQTDDSEPLGKYGRMRLAYLKNQRPVLYNQMLLNGTLWPHLQDVQKTAYEWLERTMTTLLDK | -0.0745
57 | HMYGLSFLIGFTVVDRTYGDIGKVTAIDDSTVNTLMAVGDRLIPAQEAFITKIDNTKKIIYTQLPEGLL | 0.177
58 | HMRTDTIINSGGLKINPEEVENEILKSLGDNNFFIDKIKNDKFGEEIILIALKKIKINLLIESLNLI | 0.0394
59 | HMDFFTAAPEEDEIGKRIDVYIAEYKEELSRSRVQKLIENGLVTVNGKAVKSNYKLRKGDILEVEIPDPE | 0.0151
60 | HMNMYTVTGRLVDQDGVPQANALVTIDSSSQQTRTSPQGFYLIKVFGTEPSTIKFLVDGYDPQIVNFTP | -0.21
61 | HMDVPTEEAILAYNNVPIELAAKFIGWSDITIRYALQEERAPFGMAAQNPKTGTWSYNISPGLLLKYKSGE | -2.11
62 | HMNTSMIEHMDKSTFIRFVFTNPVTHDQAVAKLMEKHMWFSTEEKAEAEIDKLLNKTNSLIESGGKLTW | 0.0337
63 | HMIGELVVEDLAAASEINVDTIRYYQRLGLLEPPRRRGRRAVYDHTHLERLAEIRRLAGAGFTLAQIGRLK | -2.53
64 | HMRPIDEVFGFFSRPENLTVITPSNLHFNILTPRPLEMKQGAVIDYTIKIFKVPIHWRTLITTYDPPFKFV | -0.288
65 | HMQKYEDIINVTRERLQNKFYSQTVIPTDDDIYIWLDKVAILEEIKLSKEDRQMLFNLLKKEAT | -0.451
66 | HMDTTLFGLFQNVILTQEDYEELSRTIVEDLDGLIDRLSAYMTSTGKTYKNHKATLLSWYLQDEKKFK | -1.82
67 | HMEEMADILKTRIDTLDLSTRTLNALTGANIRTVGGIARKKKEDLLELAGMGEKGIQEIKKVLGGFGITL | -0.0181
68 | HMLSGNLTADAHVHRGLQALSDGRNEDALVDFTKATEVQADFAEAWNKRATVNYLLGRYDAAVLDIQKTLE | 0.19
69 | HMGTVRFYNKERGFGFVVSDDGESVFLPAKALPDGVSDLSPGTRVDYGAALGKKGSQ | 0.153
